Assay [1] has as its target T1, human C4b (human) (UniProt P0C0L4).
T1 sequence: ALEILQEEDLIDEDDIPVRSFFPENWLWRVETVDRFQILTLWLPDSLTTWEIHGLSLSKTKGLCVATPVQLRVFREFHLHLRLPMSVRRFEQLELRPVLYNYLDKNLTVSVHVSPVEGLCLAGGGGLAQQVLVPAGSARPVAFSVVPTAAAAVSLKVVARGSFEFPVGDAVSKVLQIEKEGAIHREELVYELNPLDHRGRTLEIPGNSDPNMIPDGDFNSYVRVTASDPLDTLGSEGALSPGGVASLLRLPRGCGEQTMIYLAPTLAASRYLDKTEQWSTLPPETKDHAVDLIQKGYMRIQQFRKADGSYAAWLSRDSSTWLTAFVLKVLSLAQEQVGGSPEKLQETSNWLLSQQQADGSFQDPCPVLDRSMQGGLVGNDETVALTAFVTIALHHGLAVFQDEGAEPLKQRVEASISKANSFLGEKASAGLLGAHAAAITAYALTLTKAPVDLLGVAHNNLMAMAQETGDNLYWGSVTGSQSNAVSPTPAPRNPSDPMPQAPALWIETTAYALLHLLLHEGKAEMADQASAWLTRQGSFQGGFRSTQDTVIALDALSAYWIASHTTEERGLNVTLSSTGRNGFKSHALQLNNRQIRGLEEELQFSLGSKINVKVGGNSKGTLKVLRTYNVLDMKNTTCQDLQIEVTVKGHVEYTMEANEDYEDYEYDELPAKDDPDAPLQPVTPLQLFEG

Assay [2] concerns the target soluble human C3b (human) (UniProt P01024).

This is an account of results in patent US20230038638A1, “COMPLEMENT FACTOR I-RELATED COMPOSITIONS AND METHODS” (published 2023).

On to “CFI-HSA variant K14A; Y20F; D26A; R35A; E38A (enzyme)”, for which, in assay [1], the C4b Screen Ref Fold (fold of reference) is 0.15. Further, the iC3b Screen Ref Fold (fold of reference) in assay [2] was 0.11.

On to CFI-HSA variant K312A (enzyme), for which, in assay [1], the C4b Screen Ref Fold (fold of reference) worked out at 0.09. Also, in assay [2], the iC3b Screen Ref Fold (fold of reference) turned out to be 0.84.

On to CFI-HSA variant K312A; R314A (enzyme), for which the C4b Screen Ref Fold (fold of reference) in assay [1] came out at 0.58. Further, in assay [2], the iC3b Screen Ref Fold (fold of reference) worked out at 0.48.

Take CFI-HSA variant K340G (enzyme): the C4b Screen Ref Fold (fold of reference) in assay [1] came out at 0.15. For the same substance, in assay [2], the iC3b Screen Ref Fold (fold of reference) was -0.01.

On to CFI-HSA variant K340G; I345G (enzyme), for which, in assay [1], the C4b Screen Ref Fold (fold of reference) turned out to be 0.14. Moreover, the iC3b Screen Ref Fold (fold of reference) in assay [2] amounted to 0.

As for CFI-HSA variant K387G (enzyme), in assay [1], the C4b Screen Ref Fold (fold of CFI-HSA wild type) is 0.37. Also, in assay [2], the iC3b Screen Ref Fold (fold of CFI-HSA wild type) stood at 0.23.

As for CFI-HSA variant K418G (enzyme), in assay [1], the C4b Screen Ref Fold (fold of reference) was 0.69. For the same substance, the iC3b Screen Ref Fold (fold of reference) in assay [2] came out at 0.39.

Regarding CFI-HSA variant K419G (enzyme), the C4b Screen Ref Fold (fold of CFI-HSA wild type) in assay [1] is 0.21. The iC3b Screen Ref Fold (fold of CFI-HSA wild type) in assay [2] came to 0.78.

Regarding CFI-HSA variant K458A (enzyme), the C4b Screen Ref Fold (fold of reference) in assay [1] stood at 0.11. Besides, in assay [2], the iC3b Screen Ref Fold (fold of reference) was 0.71.

With CFI-HSA variant K504R; P558S (enzyme), the C4b Screen Ref Fold (fold of CFI-HSA wild type) in assay [1] is 0.17. The iC3b Screen Ref Fold (fold of CFI-HSA wild type) in assay [2] came out at 1.19.

For the substance CFI-HSA variant K504R; S507A (enzyme), the C4b Screen Ref Fold (fold of CFI-HSA wild type) in assay [1] stood at 0.18. Also, the iC3b Screen Ref Fold (fold of CFI-HSA wild type) in assay [2] is -0.02.

Take “CFI-HSA variant L304G; P305G; K306G; L307G; S308G (enzyme)”: in assay [1], the C4b Screen Ref Fold (fold of reference) came to 0. Further, the iC3b Screen Ref Fold (fold of reference) in assay [2] came to 0.56.

Take CFI-HSA variant L386G (enzyme): in assay [1], the C4b Screen Ref Fold (fold of CFI-HSA wild type) worked out at 0.07. In assay [2], the iC3b Screen Ref Fold (fold of CFI-HSA wild type) is 0.54.

Turning to CFI-HSA variant N52Q; N159Q (enzyme), the C4b Screen Ref Fold (fold of CFI-HSA wild type) in assay [1] was determined as 0.56. Also, the iC3b Screen Ref Fold (fold of CFI-HSA wild type) in assay [2] was 1.39.

Take “CFI-HSA variant N422K; E457G; E461Q; N531G (enzyme)”: the C4b Screen Ref Fold (fold of CFI-HSA wild type) in assay [1] was found to be 3.52. Also, the iC3b Screen Ref Fold (fold of CFI-HSA wild type) in assay [2] turned out to be 2.02.

On to CFI-HSA variant N422K; S507A (enzyme), for which the C4b Screen Ref Fold (fold of CFI-HSA wild type) in assay [1] was found to be 0.03. For the same substance, the iC3b Screen Ref Fold (fold of CFI-HSA wild type) in assay [2] was -0.03.

CFI-HSA variant N476Q; N518Q (enzyme): the C4b Screen Ref Fold (fold of CFI-HSA wild type) in assay [1] came out at 0.15. For the same substance, the iC3b Screen Ref Fold (fold of CFI-HSA wild type) in assay [2] turned out to be 1.28.

For the substance CFI-HSA variant N531E (enzyme), in assay [1], the C4b Screen Ref Fold (fold of reference) worked out at 3.96. In assay [2], the iC3b Screen Ref Fold (fold of reference) came out at 0.82.

As for CFI-HSA variant N531G; S507A (enzyme), the C4b Screen Ref Fold (fold of CFI-HSA wild type) in assay [1] is -0.07. Further, in assay [2], the iC3b Screen Ref Fold (fold of CFI-HSA wild type) is -0.03.

In the case of CFI-HSA variant N531H (enzyme), the C4b Screen Ref Fold (fold of reference) in assay [1] is 1.16. Besides, in assay [2], the iC3b Screen Ref Fold (fold of reference) was 0.74.

With CFI-HSA variant N531I (enzyme), in assay [1], the C4b Screen Ref Fold (fold of reference) is 0.36. Moreover, the iC3b Screen Ref Fold (fold of reference) in assay [2] came to 0.24.

For “CFI-HSA variant N531M; Y403F; K504Y; E457G; E461Q (enzyme)”, the C4b Screen Ref Fold (fold of CFI-HSA wild type) in assay [1] is 3.46. In assay [2], the iC3b Screen Ref Fold (fold of CFI-HSA wild type) stood at 0.7.

On to CFI-HSA variant N531P (enzyme), for which, in assay [1], the C4b Screen Ref Fold (fold of reference) amounted to 0.08. In assay [2], the iC3b Screen Ref Fold (fold of reference) is -0.01.

As for CFI-HSA variant N531R (enzyme), in assay [1], the C4b Screen Ref Fold (fold of reference) worked out at 0.58. Further, the iC3b Screen Ref Fold (fold of reference) in assay [2] was 0.75.

For the substance CFI-HSA variant N531T (enzyme), the C4b Screen Ref Fold (fold of reference) in assay [1] is 0.31. In addition, the iC3b Screen Ref Fold (fold of reference) in assay [2] turned out to be 0.19.
